Laboratory results taken from US9988429B2, “Glucagon analogues” (Zealand Pharma A/S, priority 2013, dated 2018).
Starred links: 1 amine or outer side, 2 acyl side, 3 side chain; linkers in the order of their positions; H or OH if unused. Non-standard residues stand in square brackets, D forms with d. Residues, ends and D or L forms follow the SMILES beside them. Groups on a side chain read outwards from the residue. *: point of attachment. γGlu = O=C(O)[C@H](CCC(=O)[*:2])N[*:1]; Palmitoyl = CCCCCCCCCCCCCCCC(=O)*; Ac4c = NC1(C(=O)O)CCC1; Ac3c = NC1(C(=O)O)CC1

T1: endogenous GLP-1 receptor of a murine insulinoma cell line (murine, UniProt O35659 22-463)
T1 sequence (looked up): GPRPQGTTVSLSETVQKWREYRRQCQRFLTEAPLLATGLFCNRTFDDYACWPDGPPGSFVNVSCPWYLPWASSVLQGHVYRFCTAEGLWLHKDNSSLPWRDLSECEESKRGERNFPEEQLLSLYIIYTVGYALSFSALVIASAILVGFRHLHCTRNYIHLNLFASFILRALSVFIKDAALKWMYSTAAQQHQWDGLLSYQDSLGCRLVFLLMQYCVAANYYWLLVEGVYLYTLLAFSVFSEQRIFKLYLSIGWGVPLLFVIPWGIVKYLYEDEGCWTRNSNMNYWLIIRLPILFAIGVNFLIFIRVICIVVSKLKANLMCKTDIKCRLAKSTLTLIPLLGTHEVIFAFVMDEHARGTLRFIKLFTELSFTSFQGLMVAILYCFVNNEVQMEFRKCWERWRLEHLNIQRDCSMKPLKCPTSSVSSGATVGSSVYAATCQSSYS


How the values were obtained:
[1] = biological target: T2, human glucagon-like peptide 1 receptor (GLP-1R) (Homo sapiens, UniProt P43220); assay: GLP-1 receptor efficacy assay (cAMP AlphaScreen, CHO cells); format: cell-based; conditions: EC50 [GLP-1R] / EC50 [Glucagon-R], human receptors in CHO-K1
T2 construct: expressed in transfected cells
Description: The mammalian expression vectors encoding the Glucagon-R or the GLP-1-R were transfected into Chinese hamster ovary (CHO) cells by the Attractene method. Stably expressing clones were obtained by Zeocin selection (250 μg/mL) upon limited dilution of cells resistant to the selection pressure. […] One Glucagon-R expressing clone and one GLP-1-R expressing clone were chosen for compound profiling.
CHO cells expressing the human Glucagon-R, or human GLP-1-R were seeded 24 hours prior to the assay at 30,000 cells per well in 96-well microtiter plates in culture in 100 μl growth medium. On the day of analysis, growth medium was removed and the cells were washed once with 200 μl of assay buffer (Krebs-Ringer-buffer—KRBH). The buffer was removed and the cells were incubated for 15 min at room temperature in 10 μl KRBH (KRBH+10 mM HEPES, 5 mM NaHCO3, 0.1% (V/V) BSA) with 0.1 mM IBMX in deionized water containing increasing concentrations of test peptides. The reaction was stopped by the addition of lysis buffer (0.1% w/v BSA, 5 mM HEPES, 0.3% v/v Tween-20). After cell lysis for 10 min at room temperature, lysates were transferred to 384-well plates and 10 μl of acceptor/donorbead mixture as contained in the AlphaScreen™ cAMP Functional Assay Kit was added. After one hour of incubation at room temperature in the dark, the cAMP content was determined applying the AlphaScreen™ cAMP Functional Assay Kit from Perkin-Elmer according to manufacturer instructions. […] The GLP-1/glucagon ratio is calculated as defined earlier.

[2] = biological target: T1, endogenous GLP-1 receptor of a murine …; assay: cell-based or functional assay
[3] = biological target: human glucagon-like peptide 1 receptor (GLP-1R) (human, UniProt P43220 24-463); assay: cell-based or functional assay
[4] = biological target: human glucagon receptor (Glucagon-R) (human, UniProt P47871 26-477); assay: cell-based or functional assay
[5] = biological target: endogenous glucagon receptor of primary rat hepatocytes (rat, UniProt P30082 27-485); assay: cell-based or functional assay
Chain of endogenous glucagon receptor of primary rat hepatocytes (P30082 27-485): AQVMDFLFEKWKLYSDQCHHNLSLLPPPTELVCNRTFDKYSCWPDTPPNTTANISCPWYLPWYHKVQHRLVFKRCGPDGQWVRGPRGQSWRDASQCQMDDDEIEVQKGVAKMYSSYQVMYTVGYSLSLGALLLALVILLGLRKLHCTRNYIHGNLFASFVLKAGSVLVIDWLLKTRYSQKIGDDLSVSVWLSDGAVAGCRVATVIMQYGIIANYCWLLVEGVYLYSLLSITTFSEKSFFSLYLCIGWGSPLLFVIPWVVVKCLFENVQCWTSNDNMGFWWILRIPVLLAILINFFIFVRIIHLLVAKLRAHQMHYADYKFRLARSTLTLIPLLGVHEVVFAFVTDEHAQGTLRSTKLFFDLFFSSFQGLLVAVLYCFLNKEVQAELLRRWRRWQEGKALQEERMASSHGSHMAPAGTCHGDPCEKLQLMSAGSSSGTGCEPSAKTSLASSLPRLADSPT

Chain of human glucagon receptor (Glucagon-R) (P47871 26-477): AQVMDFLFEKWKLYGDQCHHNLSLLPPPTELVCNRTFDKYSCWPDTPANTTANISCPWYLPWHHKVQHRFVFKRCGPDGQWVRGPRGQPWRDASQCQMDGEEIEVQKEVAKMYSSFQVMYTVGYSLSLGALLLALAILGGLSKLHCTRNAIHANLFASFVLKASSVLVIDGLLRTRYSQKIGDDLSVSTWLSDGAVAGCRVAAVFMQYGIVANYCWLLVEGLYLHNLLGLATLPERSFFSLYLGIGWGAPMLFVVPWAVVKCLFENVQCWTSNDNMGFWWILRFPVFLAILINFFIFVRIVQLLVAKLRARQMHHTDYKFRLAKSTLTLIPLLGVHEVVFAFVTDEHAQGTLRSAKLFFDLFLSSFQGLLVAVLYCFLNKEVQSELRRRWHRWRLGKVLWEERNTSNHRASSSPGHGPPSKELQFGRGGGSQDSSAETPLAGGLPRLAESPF
T2 sequence (P43220 24-463): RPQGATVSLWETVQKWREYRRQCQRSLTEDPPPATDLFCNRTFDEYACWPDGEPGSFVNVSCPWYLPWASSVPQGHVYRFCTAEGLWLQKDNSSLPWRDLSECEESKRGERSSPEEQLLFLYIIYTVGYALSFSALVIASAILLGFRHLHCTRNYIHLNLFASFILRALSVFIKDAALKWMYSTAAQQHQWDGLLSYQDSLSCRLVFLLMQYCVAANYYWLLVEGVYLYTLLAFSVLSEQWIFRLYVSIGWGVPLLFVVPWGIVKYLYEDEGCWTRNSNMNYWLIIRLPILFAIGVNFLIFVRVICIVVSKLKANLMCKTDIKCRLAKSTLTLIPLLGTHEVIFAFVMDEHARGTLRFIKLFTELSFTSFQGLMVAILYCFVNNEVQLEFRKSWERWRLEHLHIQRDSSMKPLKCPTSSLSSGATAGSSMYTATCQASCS

Ratio GLP-1/Glucagon [1] | EC50 [nM] (cAMP in murine insulinoma cell line) [2] | EC50 hGLP-1R CHO-K1 [nM] (cAMP, AlphaScreen) [3] | EC50 hGCGR CHO-K1 [nM] (cAMP, AlphaScreen) [4] | EC50 [nM] (inhibition of glycogen synthesis rate in primary rat hepatocytes) [5] | Molecule
 | 0.3 | 0.35 | 0.6 | 0.28 | H-H[dA]HGTFTSDYSKYLDSK([γGlu-Palmitoyl])AAHDFVEWLLSA-NH2 (SMILES CCCCCCCCCCCCCCCC(=O)N[C@@H](CCC(=O)NCCCC[C@H](NC(=O)[C@H](CO)NC(=O)[C@H](CC(=O)O)NC(=O)[C@H](CC(C)C)NC(=O)[C@H](Cc1ccc(O)cc1)NC(=O)[C@H](CCCCN)NC(=O)[C@H](CO)NC(=O)[C@H](Cc1ccc(O)cc1)NC(=O)[C@H](CC(=O)O)NC(=O)[C@H](CO)NC(=O)[C@@H](NC(=O)[C@H](Cc1ccccc1)NC(=O)[C@@H](NC(=O)CNC(=O)[C@H](Cc1c[nH]cn1)NC(=O)[C@@H](C)NC(=O)[C@@H](N)Cc1c[nH]cn1)[C@@H](C)O)[C@@H](C)O)C(=O)N[C@@H](C)C(=O)N[C@@H](C)C(=O)N[C@@H](Cc1c[nH]cn1)C(=O)N[C@@H](CC(=O)O)C(=O)N[C@@H](Cc1ccccc1)C(=O)N[C@H](C(=O)N[C@@H](CCC(=O)O)C(=O)N[C@@H](Cc1c[nH]c2ccccc12)C(=O)N[C@@H](CC(C)C)C(=O)N[C@@H](CC(C)C)C(=O)N[C@@H](CO)C(=O)N[C@@H](C)C(N)=O)C(C)C)C(=O)O) [Compound 7: H-H-DAla-HGTFTSDYSKYLDS-K(Hexadecanoyl-isoGlu)-AAHDFVEWLLSA-NH2]
 | 0.27 |  | 0.62 | 3.27 | H-H[Ac3c]QGTFTSDYSKYLDSK([γGlu-Palmitoyl])AAHDFVEWLLSA-NH2 (SMILES CCCCCCCCCCCCCCCC(=O)N[C@@H](CCC(=O)NCCCC[C@H](NC(=O)[C@H](CO)NC(=O)[C@H](CC(=O)O)NC(=O)[C@H](CC(C)C)NC(=O)[C@H](Cc1ccc(O)cc1)NC(=O)[C@H](CCCCN)NC(=O)[C@H](CO)NC(=O)[C@H](Cc1ccc(O)cc1)NC(=O)[C@H](CC(=O)O)NC(=O)[C@H](CO)NC(=O)[C@@H](NC(=O)[C@H](Cc1ccccc1)NC(=O)[C@@H](NC(=O)CNC(=O)[C@H](CCC(N)=O)NC(=O)C1(NC(=O)[C@@H](N)Cc2c[nH]cn2)CC1)[C@@H](C)O)[C@@H](C)O)C(=O)N[C@@H](C)C(=O)N[C@@H](C)C(=O)N[C@@H](Cc1c[nH]cn1)C(=O)N[C@@H](CC(=O)O)C(=O)N[C@@H](Cc1ccccc1)C(=O)N[C@H](C(=O)N[C@@H](CCC(=O)O)C(=O)N[C@@H](Cc1c[nH]c2ccccc12)C(=O)N[C@@H](CC(C)C)C(=O)N[C@@H](CC(C)C)C(=O)N[C@@H](CO)C(=O)N[C@@H](C)C(N)=O)C(C)C)C(=O)O) [Compound 3: H-H-Ac3c-QGTFTSDYSKYLDS-K(Hexadecanoyl-isoGlu)-AAHDFVEWLLSA-NH2]
 |  | 0.14 | 0.69 |  | H-HAQGTFTSDYSKYLDEK([γGlu-Palmitoyl])AAKDFIEWLESA-NH2 [Compound 11: H-HAQGTFTSDYSKYLDE-K(Hexadecanoyl-isoGlu)-AAKDFIEWLESA-NH2]
 | 0.12 | 0.52 |  |  | H-HAQGTFTSDYSKYLDSK([γGlu-Palmitoyl])AAHDFVEWLLSA-NH2 [Compound 1: H-HAQGTFTSDYSKYLDS-K(Hexadecanoyl-isoGlu)-AAHDFVEWLLSA-NH2]

More lines, now with the values behind:

Molecule | Ratio GLP-1/Glucagon [1] | EC50 [nM] (cAMP in murine insulinoma cell line) [2] | EC50 hGLP-1R CHO-K1 [nM] (cAMP, AlphaScreen) [3] | EC50 hGCGR CHO-K1 [nM] (cAMP, AlphaScreen) [4] | EC50 [nM] (inhibition of glycogen synthesis rate in primary rat hepatocytes) [5]
CCCCCCCCCCCCCCCC(=O)N[C@@H](CCC(=O)NCCCC[C@H](NC(=O)[C@H](CO)NC(=O)[C@H](CC(=O)O)NC(=O)[C@H](CC(C)C)NC(=O)[C@H](Cc1ccc(O)cc1)NC(=O)[C@H](CCCCN)NC(=O)[C@H](CO)NC(=O)[C@H](Cc1ccc(O)cc1)NC(=O)[C@H](CC(=O)O)NC(=O)[C@H](CO)NC(=O)[C@@H](NC(=O)[C@H](Cc1ccccc1)NC(=O)[C@@H](NC(=O)CNC(=O)[C@H](Cc1c[nH]cn1)NC(=O)C1(NC(=O)[C@@H](N)Cc2c[nH]cn2)CC1)[C@@H](C)O)[C@@H](C)O)C(=O)N[C@@H](C)C(=O)N[C@@H](C)C(=O)N[C@@H](Cc1c[nH]cn1)C(=O)N[C@@H](CC(=O)O)C(=O)N[C@@H](Cc1ccccc1)C(=O)N[C@H](C(=O)N[C@@H](CCC(=O)O)C(=O)N[C@@H](Cc1c[nH]c2ccccc12)C(=O)N[C@@H](CC(C)C)C(=O)N[C@@H](CC(C)C)C(=O)N[C@@H](CO)C(=O)N[C@@H](C)C(N)=O)C(C)C)C(=O)O [Compound 8] (H-H[Ac3c]HGTFTSDYSKYLDSK([γGlu-Palmitoyl])AAHDFVEWLLSA-NH2) | 0.13 |  |  |  | 
H-HAHGTFTSDYSKYLDSK([γGlu-Palmitoyl])AAHDFVEWLLSA-NH2 (SMILES CCCCCCCCCCCCCCCC(=O)N[C@@H](CCC(=O)NCCCC[C@H](NC(=O)[C@H](CO)NC(=O)[C@H](CC(=O)O)NC(=O)[C@H](CC(C)C)NC(=O)[C@H](Cc1ccc(O)cc1)NC(=O)[C@H](CCCCN)NC(=O)[C@H](CO)NC(=O)[C@H](Cc1ccc(O)cc1)NC(=O)[C@H](CC(=O)O)NC(=O)[C@H](CO)NC(=O)[C@@H](NC(=O)[C@H](Cc1ccccc1)NC(=O)[C@@H](NC(=O)CNC(=O)[C@H](Cc1c[nH]cn1)NC(=O)[C@H](C)NC(=O)[C@@H](N)Cc1c[nH]cn1)[C@@H](C)O)[C@@H](C)O)C(=O)N[C@@H](C)C(=O)N[C@@H](C)C(=O)N[C@@H](Cc1c[nH]cn1)C(=O)N[C@@H](CC(=O)O)C(=O)N[C@@H](Cc1ccccc1)C(=O)N[C@H](C(=O)N[C@@H](CCC(=O)O)C(=O)N[C@@H](Cc1c[nH]c2ccccc12)C(=O)N[C@@H](CC(C)C)C(=O)N[C@@H](CC(C)C)C(=O)N[C@@H](CO)C(=O)N[C@@H](C)C(N)=O)C(C)C)C(=O)O) [Compound 6: H-HAHGTFTSDYSKYLDS-K(Hexadecanoyl-isoGlu)-AAHDFVEWLLSA-NH2] |  | 0.4 | 0.62 | 0.83 | 0.87
H-H[Ac4c]HGTFTSDYSKYLDEK([γGlu-Palmitoyl])AAKDFIEWLESA-NH2 [Compound 15: H-H-Ac4c-HGTFTSDYSKYLDE-K(Hexadecanoyl-isoGlu)-AAKDFIEWLESA-NH2] |  |  |  | 0.1 | 0.05
HXQGTFTSDYSKYLDEKAAKDFIEWLESA (position 2 is DAla (D-alanine); Lys17 side chain conjugated to hexadecanoyl-isoGlu; C-terminal amide (NH2)) [Compound 12: H-H-DAla-QGTFTSDYSKYLDE-K(Hexadecanoyl-isoGlu)-AAKDFIEWLESA-NH2] |  |  | 0.14 | 1.27 | 
H-HSHGTFTSDYSKYLDSK([γGlu-Palmitoyl])AAHDFVEWLLSA-NH2 (SMILES CCCCCCCCCCCCCCCC(=O)N[C@@H](CCC(=O)NCCCC[C@H](NC(=O)[C@H](CO)NC(=O)[C@H](CC(=O)O)NC(=O)[C@H](CC(C)C)NC(=O)[C@H](Cc1ccc(O)cc1)NC(=O)[C@H](CCCCN)NC(=O)[C@H](CO)NC(=O)[C@H](Cc1ccc(O)cc1)NC(=O)[C@H](CC(=O)O)NC(=O)[C@H](CO)NC(=O)[C@@H](NC(=O)[C@H](Cc1ccccc1)NC(=O)[C@@H](NC(=O)CNC(=O)[C@H](Cc1c[nH]cn1)NC(=O)[C@H](CO)NC(=O)[C@@H](N)Cc1c[nH]cn1)[C@@H](C)O)[C@@H](C)O)C(=O)N[C@@H](C)C(=O)N[C@@H](C)C(=O)N[C@@H](Cc1c[nH]cn1)C(=O)N[C@@H](CC(=O)O)C(=O)N[C@@H](Cc1ccccc1)C(=O)N[C@H](C(=O)N[C@@H](CCC(=O)O)C(=O)N[C@@H](Cc1c[nH]c2ccccc12)C(=O)N[C@@H](CC(C)C)C(=O)N[C@@H](CC(C)C)C(=O)N[C@@H](CO)C(=O)N[C@@H](C)C(N)=O)C(C)C)C(=O)O) [Compound 5: H-HSHGTFTSDYSKYLDS-K(Hexadecanoyl-isoGlu)-AAHDFVEWLLSA-NH2] |  | 0.35 | 0.27 | 0.12 | 0.75
